Measurements reported in patent US20110165161A1, “ANTI-EPCAM ANTIBODIES THAT INDUCE APOPTOSIS OF CANCER CELLS AND METHODS USING SAME” (priority 2009, published 2011).
Positions count from the first letter of the chain named.

Key:
[1] = molecular target: T1, human EpCAM (epithelial cell adhesion/activating molecule) (human, UniProt P16422 24-314); assay: cell-based or functional assay
T1 sequence: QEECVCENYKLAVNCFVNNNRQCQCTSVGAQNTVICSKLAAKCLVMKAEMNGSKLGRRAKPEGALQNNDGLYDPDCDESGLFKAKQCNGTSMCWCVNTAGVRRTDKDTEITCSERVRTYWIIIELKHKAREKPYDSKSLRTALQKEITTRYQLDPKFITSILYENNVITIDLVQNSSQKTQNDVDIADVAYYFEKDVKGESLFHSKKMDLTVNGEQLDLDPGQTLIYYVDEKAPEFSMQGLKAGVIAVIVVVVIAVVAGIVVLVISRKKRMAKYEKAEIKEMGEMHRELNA

[2] = molecular target: T1, human EpCAM (epithelial cell …); assay: cell-based or functional assay; remark: listed apart in the source
[3] = molecular target: T1, human EpCAM (epithelial cell …); assay: flow cytometry, CHO/EpCAM cells, 0.1 µg/ml antibody
Method: A 300× dilution of human cell hyper-immune serum (HPS 300×) was used as binding positive control for both cell lines here. After 1 hr incubation at 4° C., cells were washed twice with 200 μl FACS buffer (1×PBS containing 1% FBS), stained with 100 μl of 1 μg/ml goat-anti-mouse IgG-PE (Southern Biotech, Cat. No. 1032-09) in FACS buffer and then incubated at 4° C. for 30 min. Cells were washed thrice with FACS buffer and analyzed by flow cytometry (BD LSR, BD Life Sciences).

[4] = molecular target: T2, EGFI-Cr1 wild type (first EGF-like repeat of human EpCAM fused to the constant region of human immunoglobulin … (human, UniProt P01857-1 99-330 = IgG part)); assay: direct ELISA, coated EGFI-Cr1 fusion, 0.1 µg/ml antibody
T2 construct: cDNA covered aa 1-63; Expressed in COS-7 cells; also called WT; EpCAM EGF-1 fusion protein WT
Method: (§1) A direct ELISA was used for testing the reactivity of anti-EpCAM antibodies toward variant EpCAM mutants. Briefly, purified EpCAM EGF-1 fusion proteins (WT, Q24A, E25K, E26D, A35T, N37R, F39A, V40E, N41A, N42E, N43A, R44G, Q45A, Q47A or T49A) and irrelevant control (CEA-Cr1) were pre-diluted to 0.5 μg/ml in coating buffer (8.4 g NaHCO₃, 3.4 g Na₂CO₃ in 1 L H₂O, pH 9.5) and aliquoted (100 μl/well) into 96-well plates. […] Plates were then washed 3 times with PBST followed by the addition of the enzyme substrate TMB (BD Biosciences, Cat. No. 555214). […] The optical densities at 450 nm wavelength were measured on an ELISA plate reader.

[5] = molecular target: T3, EGFI-Cr1 Q24A (human, UniProt P16422 25-63); assay: as above
T3 construct: not shown: The fused constant region of human immunoglobulin gamma 1 heavy chain (Cr1)
T3 chain: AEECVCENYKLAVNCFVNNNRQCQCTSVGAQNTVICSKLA
Method: as §1

[6] = molecular target: T4, EGFI-Cr1 E25K (human, UniProt P16422 24-63); assay: as above
T4 construct: not shown: The fused constant region of human immunoglobulin gamma 1 heavy chain (Cr1)
T4 chain: T3 chain with A1Q, E2K
Method: as §1

[7] = molecular target: T5, EGFI-Cr1 E26D (human, UniProt P16422 24-63); assay: as above
T5 construct: not shown: The fused constant region of human immunoglobulin gamma 1 heavy chain (Cr1)
T5 chain: T3 chain with A1Q, E3D
Method: as §1

[8] = molecular target: T6, EGFI-Cr1 A35T (human, UniProt P16422 24-63); assay: as above
T6 construct: not shown: The fused constant region of human immunoglobulin gamma 1 heavy chain (Cr1)
T6 chain: T3 chain with A1Q, A12T
Method: as §1

[9] = molecular target: T7, EGFI-Cr1 N37R (human); assay: as above
T7 construct: not shown: The fused constant region of human immunoglobulin gamma 1 heavy chain (Cr1)
T7 chain: T3 chain with A1Q, N14R
Method: as §1

[10] = molecular target: T8, EGFI-Cr1 F39A (human, UniProt P16422 24-63); assay: as above
T8 construct: not shown: The fused constant region of human immunoglobulin gamma 1 heavy chain (Cr1)
T8 chain: T3 chain with A1Q, F16A
Method: as §1

[11] = molecular target: T9, EGFI-Cr1 V40E (human); assay: as above
T9 construct: not shown: The fused constant region of human immunoglobulin gamma 1 heavy chain (Cr1)
T9 chain: T3 chain with A1Q, V17E
Method: as §1

[12] = molecular target: T10, EGFI-Cr1 N41A (human, UniProt P16422 24-63); assay: as above
T10 construct: not shown: The fused constant region of human immunoglobulin gamma 1 heavy chain (Cr1)
T10 chain: T3 chain with A1Q, N18A
Method: as §1

[13] = molecular target: T11, EGFI-Cr1 N42E (human, UniProt P16422 24-63); assay: as above
T11 construct: not shown: the constant region of human immunoglobulin gamma 1 heavy chain (Cr1) fused at the C-terminus
T11 chain: T3 chain with A1Q, N19E
Method: as §1

[14] = molecular target: T12, EGFI-Cr1 N43A (human, UniProt P16422 24-63); assay: as above
T12 construct: not shown: the constant region of human immunoglobulin gamma 1 heavy chain (Cr1) fused at the C-terminus
T12 chain: T3 chain with A1Q, N20A
Method: as §1

[15] = molecular target: T13, EGFI-Cr1 R44G (human, UniProt P16422 24-63); assay: as above
T13 construct: not shown: the constant region of human immunoglobulin gamma 1 heavy chain (Cr1) fused at the C-terminus
T13 chain: T3 chain with A1Q, R21G
Method: as §1

[16] = molecular target: T14, EGFI-Cr1 Q45A (human, UniProt P16422 24-63); assay: as above
T14 construct: not shown: the constant region of human immunoglobulin gamma 1 heavy chain (Cr1) fused at the C-terminus
T14 chain: T3 chain with A1Q, Q22A
Method: as §1

[17] = molecular target: T15, EGFI-Cr1 Q47A (human, UniProt P16422 24-63); assay: as above
T15 construct: not shown: the constant region of human immunoglobulin gamma 1 heavy chain (Cr1) fused at the C-terminus
T15 chain: T3 chain with A1Q, Q24A
Method: as §1

[18] = molecular target: T16, EGFI-Cr1 T49A (human, UniProt P16422 24-63); assay: as above
T16 construct: not shown: the constant region of human immunoglobulin gamma 1 heavy chain (Cr1) fused at the C-terminus
T16 chain: T3 chain with A1Q, T26A
Method: as §1

B1: murine monoclonal antibody 4D2 (antibody, mouse IgG1, V domains shown)
VH: EVQLVESGGDLVKPGGSLKLSCAASGFAFDSYGMSWVRQTPGKRLEWVATISSGGYYTYYQDSVKGRFTTSRDNAKNTLDLQMSSLKSEDSAIYYCARRGNYDVDYYAMDYWGQGTSVTVSS
VL: DVVMTQTPLSLPVSLGDQASISCRSSQSLVHSNGNTYLHWYLQKPGQSPKLLIYKVSNRFSGVPDRFSGSGSGTDFTLRISRVEAEDLGVYFCSQSTHVPPWTFGGGTKLEIKR
notes: Mouse IgG1, kappa, from hybridoma; also called m338-4D2.20
% Annexin V/PI-positive cells, DLD-1, 1.0 µg/ml mAb [1]: 31%
% Annexin V/PI-positive cells, DLD-1, 3.0 µg/ml mAb [1]: 51%
% Annexin V/PI-positive cells, DLD-1, 10 µg/ml mAb [1]: 62%
% Annexin V/PI-positive cells, FaDu, 1.0 µg/ml mAb [1]: 37%
% Annexin V/PI-positive cells, FaDu, 3.0 µg/ml mAb [1]: 43%
% Annexin V/PI-positive cells, FaDu, 10 µg/ml mAb [1]: 46%
% Annexin V/PI-positive cells, LNCaP, 1.0 µg/ml mAb [1]: 49%
% Annexin V/PI-positive cells, LNCaP, 3.0 µg/ml mAb [1]: 52%
% Annexin V/PI-positive cells, LNCaP, 10 µg/ml mAb [1]: 50%
% Annexin V/PI-positive cells, NCI-H520, 1.0 µg/ml mAb [1]: 24%
% Annexin V/PI-positive cells, NCI-H520, 3.0 µg/ml mAb [1]: 30%
% Annexin V/PI-positive cells, NCI-H520, 10 µg/ml mAb [1]: 32%
% Annexin V/PI-positive cells, NCI-N87, 1.0 µg/ml mAb [1]: 49%
% Annexin V/PI-positive cells, NCI-N87, 3.0 µg/ml mAb [1]: 52%
% Annexin V/PI-positive cells, NCI-N87, 10 µg/ml mAb [1]: 55%
% Annexin V/PI-positive cells, NIH:OVCAR-3, 1.0 µg/ml mAb [1]: 40%
% Annexin V/PI-positive cells, NIH:OVCAR-3, 3.0 µg/ml mAb [1]: 51%
% Annexin V/PI-positive cells, NIH:OVCAR-3, 10 µg/ml mAb [1]: 56%
% Annexin V/PI-positive cells, T-47D, 1.0 µg/ml mAb [1]: 35%
% Annexin V/PI-positive cells, T-47D, 3.0 µg/ml mAb [1]: 44%
% Annexin V/PI-positive cells, T-47D, 10 µg/ml mAb [1]: 45%
% of Annexin V + PI staining (untreated background subtracted), NCI-H358, 10 µg/ml mAb, Exp1 [2]: 43%
% of Annexin V + PI staining (untreated background subtracted), NCI-H358, 10 µg/ml mAb, Exp2 [2]: 41%
% of Annexin V + PI staining (untreated background subtracted), NCI-H358, 10 µg/ml mAb, Exp3 [2]: 45%
% of Annexin V + PI staining (untreated background subtracted), NCI-H358, 10 µg/ml mAb, Exp4 [2]: 46%
% of Annexin V + PI staining (untreated background subtracted), NCI-H358, 10 µg/ml mAb, Exp5 [2]: 43%
MFI [3]: 1740 MFI
relative binding activity (% of WT) [4]: 100%
relative binding activity (% of WT) [5]: 41%
relative binding activity (% of WT) [6]: 2%
relative binding activity (% of WT) [7]: 52%
relative binding activity (% of WT) [8]: 27%
relative binding activity (% of WT) [9]: 64%
relative binding activity (% of WT) [10]: 11%
relative binding activity (% of WT) [11]: 1%
relative binding activity (% of WT) [12]: 0%
relative binding activity (% of WT) [13]: 82%
relative binding activity (% of WT) [14]: 57%
relative binding activity (% of WT) [15]: 1%
relative binding activity (% of WT) [16]: 4%
relative binding activity (% of WT) [17]: 23%
relative binding activity (% of WT) [18]: 63%
